For test [1], the target named is FGF2-Y81pCMF-GFP (human). The test is described as follows: z-scan fluorescence correlation spectroscopy (brightness analysis); as a2; GUVs without membrane pores, protein surface concentration ≤0.4 nmol/m^2.
For test [2], the target named is FGF2-Y81pCMF-GFP (human). The test is described as follows: z-scan fluorescence correlation spectroscopy (brightness analysis); as a2; GUVs containing membrane pores, protein surface concentration smaller than 0.4 nmol/m^2.
Test [3] has as its target FGF2-Y81pCMF-GFP (human). Briefly: z-scan fluorescence correlation spectroscopy (brightness analysis); protein on single GUVs with a plasma membrane-like lipid composition containing PI(4,5)P2, pre-incubated at least 30 min; average oligomeric state = cluster brightness / monomer brightness; GUVs containing membrane pores, protein surface concentration larger than 0.4 nmol/m^2.

In the case of FGF2-Y81pCMF-GFP, the stoichiometry N (average oligomeric state) in the test with FGF2-Y81pCMF-GFP (human) [1] is 5.22; with FGF2-Y81pCMF-GFP (human) [2], 5.24; in the test with FGF2-Y81pCMF-GFP (human) [3], 9.23.

Take FGF2-Y81pCMF-GFP (natural protein): in the test with FGF2-Y81pCMF-GFP (human) [3], the stoichiometry N was 8 to 12 subunits.

For orientation: stoichiometry N means the number of molecules, sites or subunits per partner or assembly.

(Values after paper PMC5601999.)
